# Patent publication US20090221985A1, “SYSTEM FOR IONTOPHORETIC TRANSDERMAL DELIVERY OF POLYMERIC AGENTS AND METHODS OF USE THEREOF” (priority 2005, published 2009)
# Tests used:
# Format in all cases: in vitro ADME
# [1] = Iontophoretic delivery of collagen through pig ear skin treated by chemical microporation, Bradford assay; details: Silver Nitrite microporated skin, 15V, 1 h
# Experimental: (§1) Collagen (100 mg/ml; Sigma) was dissolved in 10 mM sodium phosphate pH 8 containing 150 mM NaCl or in 10 mM sodium phosphate pH 8 containing 150 mM NaCl to which 10 mM glutamic acid solution was added (0.2 ml of glutamic acid were added to 1 ml of collagen to yield pH 4.0), and the glutamic acid solution was incubated at room temperature for 1 hour. Thus, positively charged collagen was driven into the skin by the positive electrode and negatively charged collagen was driven by the negative electrode. The amount of collagen transmitted through the skin was measured by the Bradford assay (Bradford M. M. Anal Biochem. 72, 248-254, 1976).
# Pig ear skin piece was treated by chemical microporation using Silver Nitrite and then iontophoresis of collagen was performed as follows:
# Twenty ml reservoir was mounted over the skin piece allowing its wetting (FIG. 5). Iontophoretic transmission experiment using the same solutions as described in Example 1 herein above was performed on each sample. Electrodes were placed in the upper and lower reservoirs. At the end of the experiment the amount of collagen transmitted through the skin was measured by the Bradford assay (Bradford M. M. Anal Biochem. 72, 248-254, 1976). The iontophoresis was performed under the following conditions: 1. Distance between electrodes (upper and lower reservoir)—2 cm;
# [2] = Iontophoretic delivery of collagen through intact (untreated) pig ear skin piece, Bradford assay; details: untreated 1.5 mm pig ear skin; 15V DC, 0.1 mA, 30 min; collected in 5 min intervals (FIGS. 3 and 4)
# Experimental: Measurements were performed on collagen delivery through a 1.5 mm thick pig ear skin. The skin piece was obtained by slicing with scalpel a 1.5 mm thick section of a pig ear and fixed it over a 2 cm diameter laboratory vial. The vial was filled with a 50 ml solution of 0.05% NaCl in water to contact with the skin piece.
# The experiment was performed by measuring the amount of collagen transmitted through the skin piece into the vial's solution by iontophoresis.
# as §1
# The experiments were performed at a 15V DC applied voltage and at a current of 0.1 mA for 30 min.
# The amount of collagen collected in 5 min intervals was measured by the Bradford reagent.
# [3] = Iontophoretic delivery of hyaluronic acid (with BSA) through pig ear skin treated by chemical microporation; details: Silver Nitrite microporated skin, iontophoresis as in Example 1
# Experimental: Bovine serum albumin (BSA; Sigma) was dissolved in 10 mM sodium phosphate pH 7.2 containing 0.15 M NaCl to yield BSA concentration of 10 mg/ml. Hyaluronic acid suspension (1 mg; Q-Med) was incubated with 0.1 ml of the BSA solution at 40° C. In addition, 0.1 ml glutamic acid (10 mM) was added to another sample of the hyaluronic acid-BSA solution to yield pH 4.0. Piece of a pig ear skin was exposed to chemical microporation using Silver Nitrite and then iontophoretic delivery of the complex was performed as described in Example 1 herein above.
# Hyaluronic acid transmitted through the pig ear was stained by complexation with a copper phtalocyanin dye and measured by the Bradford reagent.
substance,measurement,setting,value
Collagen,Transmitted amount,[1]; initial amount 0.1 mg,0.04 mg
same,Transmitted amount (%),[1]; initial amount 0.1 mg,40%
same,Transmitted amount,[1]; initial amount 0.5 mg,0.3 mg
same,Transmitted amount (%),[1]; initial amount 0.5 mg,60%
same,Transmitted amount,[1]; initial amount 1.0 mg,0.48 mg
same,Transmitted amount (%),[1]; initial amount 1.0 mg,48%
same,Transmitted amount,[1]; initial amount 10.0 mg,5.6 mg
same,Transmitted amount (%),[1]; initial amount 10.0 mg,56%
same,Transmitted amount,[1]; initial amount 20.0 mg,11.0 mg
same,Transmitted amount (%),[1]; initial amount 20.0 mg,55%
same,collagen transmitted through the skin piece by iontophoresis,[2],iontophoretically transmitted through the piece of pig ear skin
Hyaluronic acid,Transmitted amount,[3]; initial amount 0.01 mg,0.007 mg
same,Transmitted amount (%),[3]; initial amount 0.01 mg,70%
same,Transmitted amount,[3]; initial amount 0.05 mg,0.030 mg
same,Transmitted amount (%),[3]; initial amount 0.05 mg,60%
same,Transmitted amount,[3]; initial amount 0.1 mg,0.046 mg
same,Transmitted amount (%),[3]; initial amount 0.1 mg,46%
